Tests used:
CHO cells = assay: Effect on growth of CHO cells
Description: Next, 3-iodo-L-tyrosine was added to the medium to a final concentration of 0.3 mM (L-tyrosine was present at twice that concentration (FIG. 5B)).

TyrRS = assay: Aminoacylation reaction of TyrRS variants, inorganic phosphate detected with Biomol Green; assay type: biochemical, E. coli; parameters: key: +++: the activity detected with an enzyme concentration of 0.50 μM; ++: the activity detected with an enzyme concentration of 0.25 μM; the activity detected with an enzyme concentration of 0.25 μM, although the activity is lower than that represented by “++”; −: no activity detected with an enzyme concentration of 0.25 μM
Description: More preferably, a mutant TyrRS can be used in which the location corresponding to tyrosine (Y) at position 37 is substituted with valine (V), leucine (L), isoleucine (I) or alanine (A), and the location corresponding to glutamine (Q) at position 195 is substituted with alanine (A), cysteine (C), serine (S) or asparagine (N).

[1] = test system: amber mutation in ras(Am); assay: Amber suppression of ras(Am) in CHO cells, western blotting with anti-FLAG antibody; assay type: cell-based, Chinese hamster; conditions: for suppression efficiency (comparison): Ras and EGFR amber mutants, tetracycline 1 μg/mL
Description: Transfection was carried out using 0.5 to 2 μg of DNA for each plasmid per 35 mm plate in accordance with the Lipofect AMINE 2000 (Gibco BRL) method. Opti-MEM 1 (Gibco BRL) was used for the medium. Cell extracts were prepared 24 hours after transfection and applied to SDS-PAGE followed by western blotting using anti-FLAG2 antibody (Sigma) and the ECL+ Immunodetection System (Amersham Pharmacia Biotech). Band intensity was measured using the LAS-1000 plus image analyzer (Fuji Film).
In order to analyze amber suppression, the tyrosine codon at position 32 in a synthetic ras gene truncated from the wild type c-Ha-Ras was mutated to an amber codon. In order to detect expression, a FLAG peptide tag was added to the C-terminals of the ras genes, ras(WT) and its amber mutant ras(Am), and to the C-terminal of E. coli TyrRS.
These ras gene were introduced into CHO cells, and their products were detected by western blotting of cell extracts using anti-FLAG antibody (FIG. 4A).

## N[C@@H](Cc1ccc(O)c(I)c1)C(=O)O [3-iodo-L-tyrosine, reference compound]
CHO cells; 0.3 mM in the medium
  effect on cell reproduction: hardly any effect on cell reproduction

B1: Wild Type (Y37, Q195): TyrRS (wild type) of E. coli, SEQ. ID NO. 29 (protein, listed as Escherichia coli)
chain: MASSNLIKQLQERGLVAQVTDEEALAERLAQGPIALYCGFDPTADSLHLGHLVPLLCLKRFQQAGHKPVALVGGATGLIGDPSFKAAERKLNTEETVQEWVDKIRKQVAPFLDFDCGENSAIAANNYDWFGNMNVLTFLRDIGKHFSVNQMINKEAVKQRLNREDQGISFTEFSYNLLQGYDFACLNKQYGVVLQIGGSDQWGNITSGIDLTRRLHQNQVFGLTVPLITKADGTKFGKTEGGAVWLDPKKTSPYKFYQFWINTADADVYRFLKFFTFMSIEEINALEEEDKNSGKAPRAQYVLAEQVTRLVHGEEGLQAAKRITECLFSGSLSALSEADFEQLAQDGVPMVEMEKGADLMQALVDSELQPSRGQARKTIASNAITINGEKQSDPEYFFKEEDRLFGRFTLLRRGKKNYCLICWK
TyrRS; amino acid: 3-iodo-L-tyrosine
  Activity of TyrRS variants with 3-iodo-L-tyrosine: −
TyrRS; amino acid: Tyrosine
  Activity of TyrRS variants with Tyrosine: +++
CHO cells; expression from a transiently introduced plasmid
  effect on growth rate of CHO cells: hardly affect the growth rate

B2: TetBst1: tet02 sequence 10 bases upstream from the suppressor tRNA gene, SEQ. ID NO. 31 (nucleic acid)
DNA: TCTCCCTATCAGTGATAGAGATCCGTACACGTCGGAGGGGTAGCGAAGTGGCTAAACGCGGCGGACTCTAAATCCGCTCCCTTTGGGTTCGGCGGTTCGAATCCGTCCCCCTCCAGACAAGTGCGGTTTTTTTCTCCAGCTCCCG
modifications: a sequence of one of the induced expression systems prepared in Example 1 (TetBst1)
[1]
  suppression efficiency (comparison): higher suppression efficiency than TetBst0

B3: TetBst2: tet02 sequence 20 bases upstream from the suppressor tRNA gene, SEQ. ID NO. 32 (nucleic acid)
DNA: TCTCCCTATCAGTGATAGAGATCCGCCGACACACGTACACGTCGGAGGGGTAGCGAAGTGGCTAAACGCGGCGGACTCTAAATCCGCTCCCTTTGGGTTCGGCGGTTCGAATCCGTCCCCCTCCAGACAAGTGCGGTTTTTTTCTCCAGCTCCCG
modifications: a sequence of one of the induced expression systems prepared in Example 2 (TetBst2)
[1]
  suppression efficiency (comparison): lower than that of TetBst1

B4: TetBst0×1: tet02 sequence immediately before the suppressor tRNA gene, SEQ. ID NO. 30, single copy (nucleic acid)
DNA: TCTCCCTATCAGTGATAGAGATCGGAGGGGTAGCGAAGTGGCTAAACGCGGCGGACTCTAAATCCGCTCCCTTTGGGTTCGGCGGTTCGAATCCGTCCCCCTCCAGACAAGTGCGGTTTTTTTCTCCAGCTCCCG
modifications: a sequence of one of the induced expression systems prepared in Example 2 (TetBst0)
notes: ID NO; 30, single copy
[1]; no tetracycline
  suppression when tetracycline is not added: nearly complete absence of suppression

Reference: US7566555B2, “Method of expressing proteins comprising non-naturally-occurring amino acids” (Riken, priority 2002, dated 2009)
